Test results: IntAct's records for PubMed 27189942

B1: Rabankyrin-5 (Homo sapiens), Q9P2R3 (parent)
chain: MAEEEVAKLEKHLMLLRQEYVKLQKKLAETEKRCALLAAQANKESSSESFISRLLAIVADLYEQEQYSDLKIKVGDRHISAHKFVLAARSDSWSLANLSSTKELDLSDANPEVTMTMLRWIYTDELEFREDDVFLTELMKLANRFQLQLLRERCEKGVMSLVNVRNCIRFYQTAEELNASTLMNYCAEIIASHWDDLRKEDFSSMSAQLLYKMIKSKTEYPLHKAIKVEREDVVFLYLIEMDSQLPGKLNEADHNGDLALDLALSRRLESIATTLVSHKADVDMVDKSGWSLLHKGIQRGDLFAATFLIKNGAFVNAATLGAQETPLHLVALYSSKKHSADVMSEMAQIAEALLQAGANPNMQDSKGRTPLHVSIMAGNEYVFSQLLQCKQLDLELKDHEGSTALWLAVQHITVSSDQSVNPFEDVPVVNGTSFDENSFAARLIQRGSHTDAPDTATGNCLLQRAAGAGNEAAALFLATNGAHVNHRNKWGETPLHTACRHGLANLTAELLQQGANPNLQTEEALPLPKEAASLTSLADSVHLQTPLHMAIAYNHPDVVSVILEQKANALHATNNLQIIPDFSLKDSRDQTVLGLALWTGMHTIAAQLLGSGAAINDTMSDGQTLLHMAIQRQDSKSALFLLEHQADINVRTQDGETALQLAIRNQLPLVVDAICTRGADMSVPDEKGNPPLWLALANNLEDIASTLVRHGCDATCWGPGPGGCLQTLLHRAIDENNEPTACFLIRSGCDVNSPRQPGANGEGEEEARDGQTPLHLAASWGLEETVQCLLEFGANVNAQDAEGRTPIHVAISSQHGVIIQLLVSHPDIHLNVRDRQGLTPFACAMTFKNNKSAEAILKRESGAAEQVDNKGRNFLHVAVQNSDIESVLFLISVHANVNSRVQDASKLTPLHLAVQAGSEIIVRNLLLAGAKVNELTKHRQTALHLAAQQDLPTICSVLLENGVDFAAVDENGNNALHLAVMHGRLNNIRVLLTECTVDAEAFNLRGQSPLHILGQYGKENAAAIFDLFLECMPGYPLDKPDADGSTVLLLAYMKGNANLCRAIVRSGARLGVNNNQGVNIFNYQVATKQLLFRLLDMLSKEPPWCDGSYCYECTARFGVTTRKHHCRHCGRLLCHKCSTKEIPIIKFDLNKPVRVCNICFDVLTLGGVS
partner: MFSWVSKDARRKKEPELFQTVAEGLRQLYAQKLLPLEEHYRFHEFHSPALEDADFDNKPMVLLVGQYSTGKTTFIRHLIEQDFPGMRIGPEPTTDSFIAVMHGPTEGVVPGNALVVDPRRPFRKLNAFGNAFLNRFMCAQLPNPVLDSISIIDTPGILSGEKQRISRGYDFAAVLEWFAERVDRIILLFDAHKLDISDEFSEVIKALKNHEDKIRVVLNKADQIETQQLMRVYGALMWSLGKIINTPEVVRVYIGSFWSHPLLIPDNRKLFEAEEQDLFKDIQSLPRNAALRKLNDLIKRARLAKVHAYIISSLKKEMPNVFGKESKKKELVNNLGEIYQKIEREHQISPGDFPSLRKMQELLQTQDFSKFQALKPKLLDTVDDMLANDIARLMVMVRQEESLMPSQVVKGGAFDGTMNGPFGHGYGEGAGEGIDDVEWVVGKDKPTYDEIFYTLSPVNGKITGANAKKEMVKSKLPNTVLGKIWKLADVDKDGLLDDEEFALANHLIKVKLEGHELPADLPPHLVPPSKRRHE
B2: MICAL-like protein 1 (Homo sapiens), Q8N3F8 (parent)
chain: MAGPRGALLAWCRRQCEGYRGVEIRDLSSSFRDGLAFCAILHRHRPDLLDFDSLSKDNVFENNRLAFEVAEKELGIPALLDPNDMVSMSVPDCLSIMTYVSQYYNHFCSPGQAGVSPPRKGLAPCSPPSVAPTPVEPEDVAQGEELSSGSLSEQGTGQTPSSTCAACQQHVHLVQRYLADGRLYHRHCFRCRRCSSTLLPGAYENGPEEGTFVCAEHCARLGPGTRSGTRPGPFSQPKQQHQQQLAEDAKDVPGGGPSSSAPAGAEADGPKASPEARPQIPTKPRVPGKLQELASPPAGRPTPAPRKASESTTPAPPTPRPRSSLQQENLVEQAGSSSLVNGRLHELPVPKPRGTPKPSEGTPAPRKDPPWITLVQAEPKKKPAPLPPSSSPGPPSQDSRQVENGGTEEVAQPSPTASLESKPYNPFEEEEEDKEEEAPAAPSLATSPALGHPESTPKSLHPWYGITPTSSPKTKKRPAPRAPSASPLALHASRLSHSEPPSATPSPALSVESLSSESASQTAGAELLEPPAVPKSSSEPAVHAPGTPGNPVSLSTNSSLASSGELVEPRVEQMPQASPGLAPRTRGSSGPQPAKPCSGATPTPLLLVGDRSPVPSPGSSSPQLQVKSSCKENPFNRKPSPAASPATKKATKGSKPVRPPAPGHGFPLIKRKVQADQYIPEEDIHGEMDTIERRLDALEHRGVLLEEKLRGGLNEGREDDMLVDWFKLIHEKHLLVRRESELIYVFKQQNLEQRQADVEYELRCLLNKPEKDWTEEDRAREKVLMQELVTLIEQRNAIINCLDEDRQREEEEDKMLEAMIKKKEFQREAEPEGKKKGKFKTMKMLKLLGNKRDAKSKSPRDKS
partner: B1 partner
B3: Rabankyrin-5 (Homo sapiens), Q9P2R3 (parent)
chain: B1 chain
partner: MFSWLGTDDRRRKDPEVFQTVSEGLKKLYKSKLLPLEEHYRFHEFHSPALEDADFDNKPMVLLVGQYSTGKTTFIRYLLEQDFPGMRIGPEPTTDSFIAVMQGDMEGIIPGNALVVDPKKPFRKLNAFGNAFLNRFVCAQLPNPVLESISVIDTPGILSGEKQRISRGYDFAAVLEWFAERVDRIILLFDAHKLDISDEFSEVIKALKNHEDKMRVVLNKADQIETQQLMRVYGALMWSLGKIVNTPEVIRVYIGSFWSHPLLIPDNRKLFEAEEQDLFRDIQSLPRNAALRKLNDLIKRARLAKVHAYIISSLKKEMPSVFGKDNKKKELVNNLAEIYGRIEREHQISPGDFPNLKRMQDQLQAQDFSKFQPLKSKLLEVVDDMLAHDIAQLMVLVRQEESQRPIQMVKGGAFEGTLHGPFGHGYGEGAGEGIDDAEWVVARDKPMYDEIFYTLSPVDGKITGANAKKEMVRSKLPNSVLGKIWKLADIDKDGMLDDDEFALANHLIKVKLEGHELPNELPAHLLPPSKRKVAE
B4: EH domain-containing protein 3 (Homo sapiens), Q9NZN3 (parent)
chain: B3 partner
partner: B1 chain
B5: MICAL-like protein 1 (Homo sapiens), Q8N3F8 (parent)
chain: B2 chain
partner: B3 partner

Variants of: B1
Conditions: with ehd1_human EHD1, Q9H4M9

Row | Variant | effect of a mutation on the interaction
1 | S419P | disrupting interaction

Variants of: B2
Conditions: with ehd1_human EHD1, Q9H4M9

Row | Variant | effect of a mutation on the interaction
2 | E428A;E429A;E430A;E431A;E432A;D433A | disrupting interaction
3 | E429A;E430A;E431A;E432A;D433A | decreasing interaction

Variants of: B3
Conditions: with ehd3_human EHD3, Q9NZN3

Row | Variant | effect of a mutation on the interaction
4 | V420A | causing an interaction
5 | V420Y | causing an interaction
6 | Q418K;S419P;V420Y | causing an interaction
7 | Q418K | causing an interaction

Variants of: B4
Conditions: with anfy1_human ANKFY1, Q9P2R3

Row | Variant | effect of a mutation on the interaction
8 | N519A | causing an interaction
9 | E520D | causing an interaction

Variants of: B4
Conditions: with anfy1_human ANKFY1, Q9P2R3
Remark: another data set of the same source

Row | Variant | effect of a mutation on the interaction
10 | N519A;E520D | causing an interaction

Variants of: B5
Conditions: with ehd3_human EHD3, Q9NZN3

Row | Variant | effect of a mutation on the interaction
11 | E428A;E429A;E430A;E431A;E432A;D433A | disrupting interaction
